In patent US20100178296A1 (SCHERING, published 2010):
Residue numbers refer to the chain shown, from its start.

T1: wild-type human CD200RLa extracellular domain fused to the Fc region of human IgG1 (human, UniProt Q6Q8B3 24-239)
T1 construct: also called wild-type human CD200RLa fusion protein; not shown: Fc region of human IgG1
T1 sequence: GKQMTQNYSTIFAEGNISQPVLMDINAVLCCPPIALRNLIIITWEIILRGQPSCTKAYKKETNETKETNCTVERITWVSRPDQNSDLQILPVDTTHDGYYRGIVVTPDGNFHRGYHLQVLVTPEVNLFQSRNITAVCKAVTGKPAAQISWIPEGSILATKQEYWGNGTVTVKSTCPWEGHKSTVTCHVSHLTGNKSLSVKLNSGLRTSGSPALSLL

T2: CYS mutated human CD200RLa extracellular domain fused to the Fc region of human IgG1 (human, UniProt Q6Q8B3 24-239)
T2 construct: also called CYS mutated human CD200RLa fusion protein; Human CD200RLa-Cys-mut; not shown: Fc region of human IgG1
T2 chain: T1 sequence with G102C, L157C

B1: CYS mutated human CD200RLa, full length, on Ba/F3 cells expressing human DAP12 (receptor)
chain: GKQMTQNYSTIFAEGNISQPVLMDINAVLCCPPIALRNLIIITWEIILRGQPSCTKAYKKETNETKETNCTVERITWVSRPDQNSDLQILPVDTTHDGYYRCIVVTPDGNFHRGYHLQVLVTPEVNLFQSRNITAVCKAVTGKPAAQISWIPEGSICATKQEYWGNGTVTVKSTCPWEGHKSTVTCHVSHLTGNKSLSVKLNSGLRTSGSPALSLLIILYVKLSLFVVILVTTGFVFFQRINHVRKVL
notes: also called Human CD200RLa-Cys-mut; CYS mutated form of the receptor
B2: DX182, rat anti-human inhibitory CD200R monoclonal antibody (antibody, V domains shown)
VL: EVQMTQSPSTLTASPGESVSINCKASKNIRSYLAWYQQKPGKPNKLLIYSGSTLHSGTPSRFSGSGFGTDFTLTIRNLEPEDFGLYYCQQHHEYPLTFGSGTKLEIKR
VH: EIQLQESGPGLVKPSQSLSLTCSVTGYTITSGYDWSWIRKFPGNKMEWMGYINYGGSTNYKPSLGSRISITRDTSKNQFFLQLNSVSPEDTATYYCAKYNEYKSYIYDWYFDFWGPGTMVTVSS
notes: Rat hybridoma antibody; Rat IgG2a served as its isotype control; also called rat DX182; anti-huCD200R

Tests used:
[1] = biological target: T3, human DAP12 with a FLAG epitope at the N terminus, in Ba/F3 cells (human, UniProt O43914 22-113); test: surface appearance of FLAG-DAP12 on Ba/F3 transfectants, flow cytometry with anti-FLAG M2
T3 construct: whole, on cells; also called FLAG-tagged DAP12
T3 sequence (O43914 22-113): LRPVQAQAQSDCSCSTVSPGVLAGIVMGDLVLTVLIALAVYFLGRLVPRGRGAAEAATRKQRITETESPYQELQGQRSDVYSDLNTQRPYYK

[2] = biological target: T1, wild-type human CD200RLa extracellular …; test: indirect ELISA on the fusion protein
[3] = biological target: T2, CYS mutated human CD200RLa …; test: indirect ELISA on the fusion protein
[4] = biological target: B1; test: flow cytometry on Ba/F3 transfectants

| binding result [1] | binding result [2] | binding result [3] | binding result [4] | Binder |
| --- | --- | --- | --- | --- |
| binds |  |  |  | B1 |
|  | no binding | no binding | no binding | B2 |
